Source: publication PMC2566588

Target: CXCR4CFP (human) (UniProt P61073)
Assay: FRET or BRET; sensitized-emission FRET imaging as above; cells treated with chemokines (CCL3/MIP1α, CCL5/RANTES or CXCL12/SDF-1) for 20 min before imaging; N-FRET on the plasma membrane against the unstimulated control

Chain of CCR5YFP, P51681 1-352 (receptor; other documents disagree on this pair) (P51681 whole entry): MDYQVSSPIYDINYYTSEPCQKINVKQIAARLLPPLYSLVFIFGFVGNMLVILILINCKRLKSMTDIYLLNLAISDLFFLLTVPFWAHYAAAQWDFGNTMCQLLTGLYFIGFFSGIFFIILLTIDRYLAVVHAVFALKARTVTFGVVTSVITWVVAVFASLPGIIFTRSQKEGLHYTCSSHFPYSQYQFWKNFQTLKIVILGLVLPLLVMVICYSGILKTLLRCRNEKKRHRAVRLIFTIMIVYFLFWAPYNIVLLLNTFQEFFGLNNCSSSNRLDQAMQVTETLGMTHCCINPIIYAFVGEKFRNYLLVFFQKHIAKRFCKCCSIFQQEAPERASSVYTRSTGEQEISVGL
Chain of CXCR4CFP (human) (P61073 whole entry): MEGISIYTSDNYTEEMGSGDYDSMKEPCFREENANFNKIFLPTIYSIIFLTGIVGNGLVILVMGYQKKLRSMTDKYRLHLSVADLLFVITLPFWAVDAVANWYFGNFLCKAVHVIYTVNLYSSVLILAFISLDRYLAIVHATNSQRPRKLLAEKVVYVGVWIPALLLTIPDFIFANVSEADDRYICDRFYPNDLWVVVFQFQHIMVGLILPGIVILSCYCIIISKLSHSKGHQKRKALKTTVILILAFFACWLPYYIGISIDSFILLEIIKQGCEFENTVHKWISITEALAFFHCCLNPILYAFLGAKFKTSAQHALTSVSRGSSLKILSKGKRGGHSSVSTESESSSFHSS

CCR5YFP, P51681 1-352 (receptor; other documents disagree on this pair)
increase of N-FRET with CCL3/MIP1α against the unstimulated control: 30% | increase of N-FRET with CCL5/RANTES against the unstimulated control: 30%
